{"source": "patent US12099068B2", "about": "“Biomarkers for graft-versus-host disease” (Incyte Corporation, priority 2018, dated 2024)", "molecules": {"B1": {"name": "LYN (protein, UniProt P07948 2-512, looked up)", "Tyrosine-protein kinase Lyn": "GCIKSKGKDSLSDDGVDLKTQPVRNTERTIYVRDPTSNKQQRPVPESQLLPGQRFQTKDPEEQGDIVVALYPYDGIHPDDLSFKKGEKMKVLEEHGEWWKAKSLLTKKEGFIPSNYVAKLNTLETEEWFFKDITRKDAERQLLAPGNSAGAFLIRESETLKGSFSLSVRDFDPVHGDVIKHYKIRSLDNGGYYISPRITFPCISDMIKHYQKQADGLCRRLEKACISPKPQKPWDKDAWEIPRESIKLVKRLGAGQFGEVWMGYYNNSTKVAVKTLKPGTMSVQAFLEEANLMKTLQHDKLVRLYAVVTREEPIYIITEYMAKGSLLDFLKSDEGGKVLLPKLIDFSAQIAEGMAYIERKNYIHRDLRAANVLVSESLMCKIADFGLARVIEDNEYTAREGAKFPIKWTAPEAINFGCFTIKSDVWSFGILLYEIVTYGKIPYPGRTNADVMTALSQGYRMPRVENCPDELYDIMKMCWKEKAEERPTFDYLQSVLDDFYTATEGQYQQQP"}, "B2": {"name": "SCARF1 (protein, UniProt Q14162 20-830, looked up)", "Scavenger receptor class F …": "SELDPKGQHVCVASSPSAELQCCAGWRQKDQECTIPICEGPDACQKDEVCVKPGLCRCKPGFFGAHCSSRCPGQYWGPDCRESCPCHPHGQCEPATGACQCQADRWGARCEFPCACGPHGRCDPATGVCHCEPGWWSSTCRRPCQCNTAAARCEQATGACVCKPGWWGRRCSFRCNCHGSPCEQDSGRCACRPGWWGPECQQQCECVRGRCSAASGECTCPPGFRGARCELPCPAGSHGVQCAHSCGRCKHNEPCSPDTGSCESCEPGWNGTQCQQPCLPGTFGESCEQQCPHCRHGEACEPDTGHCQRCDPGWLGPRCEDPCPTGTFGEDCGSTCPTCVQGSCDTVTGDCVCSAGYWGPSCNASCPAGFHGNNCSVPCECPEGLCHPVSGSCQPGSGSRDTALIAGSLVPLLLLFLGLACCACCCWAPRSDLKDRPARDGATVSRMKLQVWGTLTSLGSTLPCRSLSSHKLPWVTVSHHDPEVPFNHSFIEPPSAGWATDDSFSSDPESGEADEVPAYCVPPQEGMVPVAQAGSSEASLAAGAFPPPEDASTPFAIPRTSSLARAKRPSVSFAEGTKFAPQSRRSSGELSSPLRKPKRLSRGAQSGPEGREAEESTGPEEAEAPESFPAAASPGDSATGHRRPPLGGRTVAEHVEAIEGSVQESSGPVTTIYMLAGKPRGSEGPVRSVFRHFGSFQKGQAEAKVKRAIPKPPRQALNRKKGSPGLASGSVGQSPNSAPKAGLPGATGPMAVRPEEAVRGLGAGTESSRRAQEPVSGCGSPEQDPQKQAEEERQEEPEYENVVPISRPPEP"}, "B3": {"name": "PEBP1 (protein, UniProt P30086 2-187, looked up)", "Phosphatidylethanolamine-bindi …": "PVDLSKWSGPLSLQEVDEQPQHPLHVTYAGAAVDELGKVLTPTQVKNRPTSISWDGLDSGKLYTLVLTDPDAPSRKDPKYREWHHFLVVNMKGNDISSGTVLSDYVGSGPPKGTGLHRYVWLVYEQDRPLKCDEPILSNRSGDHRGKFKVASFRKKYELRAPVAGTCYQAEWDDYVPKLYEQLSGK"}, "B4": {"name": "ARHGAP1 (protein, UniProt Q07960 1-439, looked up)", "Rho GTPase-activating protein …": "MDPLSELQDDLTLDDTSEALNQLKLASIDEKNWPSDEMPDFPKSDDSKSSSPELVTHLKWDDPYYDIARHQIVEVAGDDKYGRKIIVFSACRMPPSHQLDHSKLLGYLKHTLDQYVESDYTLLYLHHGLTSDNKPSLSWLRDAYREFDRKYKKNIKALYIVHPTMFIKTLLILFKPLISFKFGQKIFYVNYLSELSEHVKLEQLGIPRQVLKYDDFLKSTQKSPATAPKPMPPRPPLPNQQFGVSLQHLQEKNPEQEPIPIVLRETVAYLQAHALTTEGIFRRSANTQVVREVQQKYNMGLPVDFDQYNELHLPAVILKTFLRELPEPLLTFDLYPHVVGFLNIDESQRVPATLQVLQTLPEENYQVLRFLTAFLVQISAHSDQNKMTNTNLAVVFGPNLLWAKDAAITLKAINPINTFTKFLLDHQGELFPSPDPSGL"}, "B5": {"name": "EPHB4 (protein, UniProt P54760 16-987, looked up)", "Ephrin type-B receptor 4": "LEETLLNTKLETADLKWVTFPQVDGQWEELSGLDEEQHSVRTYEVCDVQRAPGQAHWLRTGWVPRRGAVHVYATLRFTMLECLSLPRAGRSCKETFTVFYYESDADTATALTPAWMENPYIKVDTVAAEHLTRKRPGAEATGKVNVKTLRLGPLSKAGFYLAFQDQGACMALLSLHLFYKKCAQLTVNLTRFPETVPRELVVPVAGSCVVDAVPAPGPSPSLYCREDGQWAEQPVTGCSCAPGFEAAEGNTKCRACAQGTFKPLSGEGSCQPCPANSHSNTIGSAVCQCRVGYFRARTDPRGAPCTTPPSAPRSVVSRLNGSSLHLEWSAPLESGGREDLTYALRCRECRPGGSCAPCGGDLTFDPGPRDLVEPWVVVRGLRPDFTYTFEVTALNGVSSLATGPVPFEPVNVTTDREVPPAVSDIRVTRSSPSSLSLAWAVPRAPSGAVLDYEVKYHEKGAEGPSSVRFLKTSENRAELRGLKRGASYLVQVRARSEAGYGPFGQEHHSQTQLDESEGWREQLALIAGTAVVGVVLVLVVIVVAVLCLRKQSNGREAEYSDKHGQYLIGHGTKVYIDPFTYEDPNEAVREFAKEIDVSYVKIEEVIGAGEFGEVCRGRLKAPGKKESCVAIKTLKGGYTERQRREFLSEASIMGQFEHPNIIRLEGVVTNSMPVMILTEFMENGALDSFLRLNDGQFTVIQLVGMLRGIASGMRYLAEMSYVHRDLAARNILVNSNLVCKVSDFGLSRFLEENSSDPTYTSSLGGKIPIRWTAPEAIAFRKFTSASDAWSYGIVMWEVMSFGERPYWDMSNQDVINAIEQDYRLPPPPDCPTSLHQLMLDCWQKDRNARPRFPQVVSALDKMIRNPASLKIVARENGGASHPLLDQRQPHYSAFGSVGEWLRAIKMGRYEESFAAAGFGSFELVSQISAEDLLRIGVTLAGHQKKILASVQHMKSQAKPGTPGGTGGPAPQY"}, "B6": {"name": "CLM-1 (protein, UniProt Q8TDQ1 20-290, looked up)", "CMRF35-like molecule 1": "TQITGPTTVNGLERGSLTVQCVYRSGWETYLKWWCRGAIWRDCKILVKTSGSEQEVKRDRVSIKDNQKNRTFTVTMEDLMKTDADTYWCGIEKTGNDLGVTVQVTIDPAPVTQEETSSSPTLTGHHLDNRHKLLKLSVLLPLIFTILLLLLVAASLLAWRMMKYQQKAAGMSPEQVLQPLEGDLCYADLTLQLAGTSPQKATTKLSSAQVDQVEVEYVTMASLPKEDISYASLTLGAEDQEPTYCNMGHLSSHLPGRGPEEPTEYSTISRP"}, "B7": {"name": "PDGF subunit B (protein, UniProt P01127 82-190, looked up)", "Platelet-derived growth …": "SLGSLTIAEPAMIAECKTRTEVFEISRRLIDRTNANFLVWPPCVEVQRCSGCCNNRNVQCRPTQVQLRPVQVRKIEIVRKKPIFKKATVTLEDHLACKCETVAAARPVT"}, "B8": {"name": "DAB2 (protein, UniProt P98082 2-770, looked up)", "Disabled homolog 2": "SNEVETSATNGQPDQQAAPKAPSKKEKKKGPEKTDEYLLARFKGDGVKYKAKLIGIDDVPDARGDKMSQDSMMKLKGMAAAGRSQGQHKQRIWVNISLSGIKIIDEKTGVIEHEHPVNKISFIARDVTDNRAFGYVCGGEGQHQFFAIKTGQQAEPLVVDLKDLFQVIYNVKKKEEEKKKIEEASKAVENGSEALMILDDQTNKLKSGVDQMDLFGDMSTPPDLNSPTESKDILLVDLNSEIDTNQNSLRENPFLTNGITSCSLPRPTPQASFLPENAFSANLNFFPTPNPDPFRDDPFTQPDQSTPSSFDSLKSPDQKKENSSSSSTPLSNGPLNGDVDYFGQQFDQISNRTGKQEAQAGPWPFSSSQTQPAVRTQNGVSEREQNGFSVKSSPNPFVGSPPKGLSIQNGVKQDLESSVQSSPHDSIAIIPPPQSTKPGRGRRTAKSSANDLLASDIFAPPVSEPSGQASPTGQPTALQPNPLDLFKTSAPAPVGPLVGLGGVTVTLPQAGPWNTASLVFNQSPSMAPGAMMGGQPSGFSQPVIFGTSPAVSGWNQPSPFAASTPPPVPVVWGPSASVAPNAWSTTSPLGNPFQSNIFPAPAVSTQPPSMHSSLLVTPPQPPPRAGPPKDISSDAFTALDPLGDKEIKDVKEMFKDFQLRQPPAVPARKGEQTSSGTLSAFASYFNSKVGIPQENADHDDFDANQLLNKINEPPKPAPRQVSLPVTKSTDNAFENPFFKDSFGSSQASVASSQPVSSEMYRDPFGNPFA"}, "B9": {"name": "CCL17 (protein, UniProt Q92583 24-94, looked up)", "C-C motif chemokine 17": "ARGTNVGRECCLEYFKGAIPLRKLKTWYQTSEDCSRDAIVFVTVQGRAICSDPNNKRVKNAVKYLQSLERS"}, "B10": {"name": "hK14 (protein, UniProt Q9P0G3 41-267, looked up)", "Kallikrein-14": "IIGGHTCTRSSQPWQAALLAGPRRRFLCGGALLSGQWVITAAHCGRPILQVALGKHNLRRWEATQQVLRVVRQVTHPNYNSRTHDNDLMLLQLQQPARIGRAVRPIEVTQACASPGTSCRVSGWGTISSPIARYPASLQCVNINISPDEVCQKAYPRTITPGMVCAGVPQGGKDSCQGDSGGPLVCRGQLQGLVSWGMERCALPGYPGVYTNLCKYRSWIEETMRDK"}, "B11": {"name": "APBB1IP (protein, UniProt Q7Z5R6 1-666, looked up)", "Amyloid beta A4 precursor …": "MGESSEDIDQMFSTLLGEMDLLTQSLGVDTLPPPDPNPPRAEFNYSVGFKDLNESLNALEDQDLDALMADLVADISEAEQRTIQAQKESLQNQHHSASLQASIFSGAASLGYGTNVAATGISQYEDDLPPPPADPVLDLPLPPPPPEPLSQEEEEAQAKADKIKLALEKLKEAKVKKLVVKVHMNDNSTKSLMVDERQLARDVLDNLFEKTHCDCNVDWCLYEIYPELQIERFFEDHENVVEVLSDWTRDTENKILFLEKEEKYAVFKNPQNFYLDNRGKKESKETNEKMNAKNKESLLEESFCGTSIIVPELEGALYLKEDGKKSWKRRYFLLRASGIYYVPKGKTKTSRDLACFIQFENVNIYYGTQHKMKYKAPTDYCFVLKHPQIQKESQYIKYLCCDDTRTLNQWVMGIRIAKYGKTLYDNYQRAVAKAGLASRWTNLGTVNAAAPAQPSTGPKTGTTQPNGQIPQATHSVSAVLQEAQRHAETSKDKKPALGNHHDPAVPRAPHAPKSSLPPPPPVRRSSDTSGSPATPLKAKGTGGGGLPAPPDDFLPPPPPPPPLDDPELPPPPPDFMEPPPDFVPPPPPSYAGIAGSELPPPPPPPPAPAPAPVPDSARPPPAVAKRPPVPPKRQENPGHPGGAGGGEQDFMSDLMKALQKKRGNVS"}}}
{"tested_on": "plasma proteins", "experiment": "Plasma proteins modulated between baseline and day 28 in responders (CR, VGPR, PR; n = 19), Example 6 (Table 13)", "type": "in vivo, human", "conditions": "plasma protein (OLINK NPX); responders (CR, VGPR, PR; n = 19); itacitinib 200 mg or 300 mg QD with corticosteroids; day 28 vs baseline", "outline": "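Longitudinal comparison, day 28 versus baseline, with steroid-naive (N=10) and steroid-refractory (N=18) patients combined. Proteins measured by OLINK proximity extension, log2 normalized protein expression. Differences tested by t tests, ANOVA, Pearson correlation, P<0.05 significant.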"}
{"molecule": "B1", "Fold Change, Decreased Expression from Baseline to Day 28": "−1.2337"}
{"molecule": "B2", "Fold Change, Decreased Expression from Baseline to Day 28": "−1.3509"}
{"molecule": "B3", "Fold Change, Decreased Expression from Baseline to Day 28": "−1.307"}
{"molecule": "B4", "Fold Change, Decreased Expression from Baseline to Day 28": "−1.6039"}
{"molecule": "B5", "Fold Change, Decreased Expression from Baseline to Day 28": "−1.2339"}
{"molecule": "B6", "Fold Change, Decreased Expression from Baseline to Day 28": "−1.3921"}
{"molecule": "B7", "Fold Change, Decreased Expression from Baseline to Day 28": "−1.9124"}
{"molecule": "B8", "Fold Change, Decreased Expression from Baseline to Day 28": "−1.2548"}
{"molecule": "B9", "Fold Change, Decreased Expression from Baseline to Day 28": "−3.059"}
{"molecule": "B10", "Fold Change, Increased Expression from Baseline to Day 28": 1.5574}
{"molecule": "B11", "Fold Change, Decreased Expression from Baseline to Day 28": "−1.4021"}
